# According to the nanobody polyreactivity screen of Harvey et al. (2022):
# Experiment: yeast display, Sf9 membrane polyspecificity reagent, FACS + sequencing; frameworks hold sequencing errors
# Procedure, shortened: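 A synthetic nanobody library was expressed on Saccharomyces cerevisiae BJ5465 by galactose induction for 36–48 hours. The library was stained for 1 hour at 4 °C with 10% biotinylated, detergent-solubilized Sf9 membrane reagent and enriched with streptavidin microbeads before FACS. Low and high (top ~1%) gates were set on anti-HA fluorescence for expression and streptavidin fluorescence for reagent binding, and each polyreactivity label reflects the gate of origin.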
row,Sequence,polyreactivity (PSR sort gate)
1,QVQLVESGGGLVQAGGSLRLSCAASGSTFYPYAMGWYRQAPGKERELVAAINWSGGTTYYADSVKGRFTISRDNAKNTVYLQLNSLKPEDTAVYYCAADGYPPGYGYWGQGTQVTVSS,low polyreactivity
2,QVQLVESGGGLVQAGGSLRLSCAASGSIFPAIALGWYRQAPGKERELVAGISERGSSTYYADSVKGRFTISRDNAKNTVYLQMNSLKPEDTAVYYCAADDVGRYWSSTHNWARGDYWGQGTQVTVSS,low polyreactivity
3,QVQLVESGGGLVQAGGSLRLSCAASGSIFTFNSMGWYRQSPGKERELVAAIRWSSGRTYYADSVKGRFTISRDNAKNTVYLQMNSLKPEETAVYYCAAKDFGSFYDSGYDYWGQGTQVTVSS,high polyreactivity
4,QVQVVESGGALVQEGGSLRISCAASGSIFAIYVLGWSRQAPGKERELVAAITGSGGSTYYADSVKGRFTISRDNAKITVYVQMNSQKPEDTAVYYCAARVLRVRTLTTTWGQGTQVTVSS,high polyreactivity
5,QVQLVETGGGLVQAGGSLRLSCAASGLTFYYYTMGWYRQAPGKERELVAAITSGGSTYYADSVKGRFTISRDNAKNTVYLQMNSLKPEDTAVYYCAAVPSRYGRYRYYYWGQGTQVTVSS,high polyreactivity
6,QVQLVESGGGLVQAGGSLRLSCAASGSTFYNNAMGWYRQAPGKERELVAAITSSVGSTHYADSVKGRFTISRDNAKNTVYLQMNSLKPEDSAVYYCNARGRLYGHLYDYWGQGTQVTVSS,low polyreactivity
7,QVQLVESGGGLFQAGGSLRLSCAASGRIYRFYAMGWYRQAPGKERELVAAISASGGSTYYADSVKGRFTSSRDNAKNTVYLQMISLKPEVTAVYYCAAYSWGGGYYWGQGTQVTVSS,high polyreactivity
8,QVQLVESGGGLVQAGGSLRLSCAASGINYSRYAMGWYRQAPGKERELVAAISSGGSTNYADSVKGRFTISRDNAKNTVYLQMNSLKPEDTAVYYCAAETRLHRQDYDYWGQGTQVTVSS,low polyreactivity
9,QVQLVESGGGLVQAGGSLRLSCAASGSTVGVNAMGWYRQAPGKERELVAALSNGDNTYYADSVKGRFTISRDHAKNTVYLQMNSLKPEDTAVYYCAADQYWSWIYYPVVESDYWGQGTQVTVSS,low polyreactivity
10,QVQLVESGGGLVQAGGSLRLSCAASGSTINYNAMGWYRQAPGKERELVAAIDSGVSTNYADSVKGRFTISRDNAKNTVYFQMNSLKPEDTAVYYCNADPDYFDYWGQGTQVTVSS,low polyreactivity
11,QVQLVESGGGLVQAGGSLRLSWAASGSSFGYAMGWYRQGPGKERELVAAISFSGVSTYYADSVKGRFTISRDNAKHTVYLQMNSLKPEDTAVYYCNAYSDGDEDYWGQGTQVTVSS,low polyreactivity
12,QVQLVESGGGLVQAGGSLRLSCAASGSIFQYYVMGWYRQAPGKERELVAAIRRSGTTYYADSVKGRFTISRDNAKNTVYLQMNSLNPEDTAVYYCNKVRGQEPSNYDYWGQGTQVTVSS,low polyreactivity
13,QVQLEESGGGLVQAGGSLRLSCAATGYTFEANAMGWYRQAPGKERELVAVITWTGGSTYYADSVKGRFTISRDNAKYTVYLQMNSLKPEDTAVYYCAADGVVPGRFFWPAHEYDFWGQGTQVTVSS,low polyreactivity
14,QVQLVESGGGLVQAGGSLRLSCAASGRIFLLYLMGWYRQAPGKERELVADITFSGGSTYYADSVKGRFTISRDNEKHTVYLQMNSLKPEDTAVYYCAARLFAAKYRYGYWGQGTQVTVSS,high polyreactivity
15,QVQLVESGGGFVQAGVSLRLSCAASGSIFVVYGMGWYRQAPGKERELVAAISGGITNYADSVKGLFTISRDNAKNTVYLLMNSLKPEDTAVYYCATVDGAYQYTYDYWGQGTQVTVSS,low polyreactivity
16,QVQLEESGGGLVQAGGSLSLSCAASGRNMPYNVMAWYIQATGKEREFVAAITGSGGDTYYADSVKGRFTISRDNAKNTVYLQMNSLKPEDTAVYYCAAAPYIGCSFGQTPGSGYWGQGTQVTVSS,low polyreactivity
17,QVQLVESGGGLVQAGGSLRLSCAASGSTFRRNAMGWYRQAPGKERELVAAITWRGTSTYYADSVKGRFTISRDNAKNTVYLQMNSLKPEDTAVYYCAADRFVRYWGQGTQVTVSS,high polyreactivity
18,QVQLVESGGGLVQAGGSLRLSCAASGRILPRNAMGWYRQAPGKERELVAGISSEGSTNYADSVKGRFTISRDNAKYTVYLQMNSLKPEDSAVYYCAADGVYDPNLYGYWGQGTQVNVSS,low polyreactivity
19,QVQLVESGGGLVQAGGSLRLSCAASGGTFATYAMGWYRQAPGKERELVATIRSGGSTYYADSVKGRFTISRDNAKNTVYLQMNSLKPEDTAVYYCNARAYHKGFYRITYYYWGQGTQVTVSS,high polyreactivity
20,QVQLVESGGGLVQAGGSLRLSCAASGLIFYDNMGWYRQPPGKERELVAAITVSGGSTYYADSVKGRFTISRDNAKNTVYLQMKSLKPEDTAVYYCARELLSPTYQRWYYYWGQGTQVTVSS,low polyreactivity
21,QVQLVESGGGLVQAGGSLRLSCAASGSTFVNNAMGWYRQAPGKERELVASITQSGGSTFYADSVKGRFTISRDNAKNTVYLQMNSLKPEDTAVYYWGQGTQVTVSS,low polyreactivity
